Source: article PMC10766600 (2024)
Values joined by “and” are separate entries in the source; they are usually repeats but may differ in a detail not shown here. Equal entries are not always repeated.

B1: bacteriophage T5 capsid-like particles (T5 CLPs) (complex)
chain: AVNQSSSVEVSSESYETIFSQRIIRDLQKELVVGALFEELPMSSKILTMLVEPDAGKATWVAASTYGTDTTTGEEVKGALKEIHFSTYKLAAKSFITDETEEDAIFSLLPLLRKRLIEAHAVSIEEAFMTGDGSGKPKGLLTLASEDSAKVVTEAKADGSVLVTAKTISKLRRKLGRHGLKLSKLVLIVSMDAYYDLLEDEEWQDVAQVGNDSVKLQGQVGRIYGLPVVVSEYFPAKANSAEFAVIVYKDNFVMPRQRAVTVERERQAGKQRDAYYVTQRVNLQRYFANGVVSGTYAAS

Key:
Experiment in all cases: SPR
[1] = biological target: pNO: N-terminal capsid-binding domain pN of pb10 fused at its C-terminal end with ovalbumin (bacteriophage T5 | , UniProt Q6QGD6 1-73)
[2] = biological target: pO: full-length pb10 fused at its C-terminal end with ovalbumin (bacteriophage T5 | , UniProt Q6QGD6 1-164)
[3] = biological target: pNmC: N-terminal capsid-binding domain pN of pb10 fused at its C-terminal end with mCherry (bacteriophage T5 | , UniProt Q6QGD6 1-73)
[4] = biological target: pmC: full-length pb10 fused at its C-terminal end with mCherry (bacteriophage T5 | , UniProt Q6QGD6 1-164)
[5] = biological target: B1

| Binder | Kd [1] [pM] | koff [1] [s⁻¹] | Kd [2] [pM] | koff [2] [s⁻¹] | Kd [3] [pM] | koff [3] [s⁻¹] | Kd [4] [pM] | koff [4] [s⁻¹] | koff [5] |
| --- | --- | --- | --- | --- | --- | --- | --- | --- | --- |
| B1 | 1.2 | 0.00023 | 2.3 | 0.00035 | 0.9 | 0.00011 | 1.4 | 0.0002 |  |
| decoration protein pb10 of bacteriophage T5, full length (natural protein, DNA-free expanded capsid lacking pb10 (T5 dec deletion, stAmN5). Mature pb8 after removal of the scaffolding domain; limits from the UniProt chain feature, matching the 299 aa entity of PDB 6OMC/6OMA. Minor capsid components (portal) not included.) MIDYSGLRTIFGEKLPESHIFFATVAAHKYVPSYAFLRRELGLSSAHTNRKVWKKFVEAYGKAIPPAPPAPPLTLSKDLTASMSVEEGAALTLSVTATGGTGPYTYAWTKDGSPIPDASGATYTKPTAAAEDAGSYKVTVTDSKQVSKDSTTCAVTVNPTVPGG |  |  |  |  |  |  |  |  | 0.00019 s⁻¹ and 0.0003 s⁻¹ |
